Source: patent publication US20130022590, “Compositions Comprising Zinc Finger Domains and Uses Therefor” (published 2013)
Residue numbers refer to the chain shown, from its start.

What was measured:
[1] = biological target: T1, ZRANB2-F2 (untagged) (Homo sapiens, UniProt O95218 O95218:65-95); test: 15N-HSQC titration, 1:1 complex
T1 chain: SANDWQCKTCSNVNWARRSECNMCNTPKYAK
Protocol: For RNA titrations, deprotected RNA oligonucleotides i.e., having the sequence AGGUAA, […] (SEQ ID NO: 25), or […] (SEQ ID NO: 26) and the appropriate protein were dialyzed into 10 mM Mops (pH 7.2) and 0.5 mM DTT. Protein and RNA concentrations were calculated from A₂₈₀ and A₂₆₀, respectively. Final concentrations of complexes after titrations were typically approximately 0.1-0.5 mM. Assignments of the F2:RNA complex (1:1 or 1:1.2 molar ratio) were made at 25° C. as described above.
The inventors then carried out chemical-shift perturbation experiments, titrating short (6 or 10 nt) RNA oligonucleotides containing a single AGGUAA motif into ¹⁵N-labeled F2.

[2] = biological target: T2, ZRANB2-F12 (Homo sapiens, UniProt O95218 O95218:1-95); test: SPR; immobilised RNA; 750 nM F12; 10 mM phosphate pH 7.2, 50 mM NaCl, 25 C; settings: tags: GST removed for FA, gel shift and SPR; label: 5'-biotin
Protocol: (§1) Competition binding experiments were carried out by flowing a solution of F12 over a streptavidin chip coated with a biotinylated ssRNA oligonucleotide (containing the sequence AGGUAA) in the presence of an unlabeled competitor oligonucleotide.
(§2) Binding experiments were performed in triplicate at 25° C. on a BIACORE 3000 (Biacore). A 5′ biotin-labeled RNA oligonucleotide containing the 5′ splice site from exon 3 of the Tra2β minigene ([…]; SEQ ID NO: 29) was purified by size exclusion chromatography (Superdex 75), and unlabeled competitor oligonucleotides i.e., […] from exon 1 (SEQ ID NO: 30), […] from exon 2 (SEQ ID NO: 31), and […] from exon 3 (SEQ ID NO: 32) were used without further purification. Protein and RNA samples were dialysed into 10 mM sodium phosphate (pH 7.2), 50 mM NaCl, 1 mM DTT, and 0.005% NP20 and filtered. The biotinylated RNA was heated to 65° C. for 5 min, cooled on ice, and then immobilized onto a streptavidin-coated sensor chip to a total of approximately 160 relative units. Solutions of 750 nM F12 in the presence of 1 molar equivalent of each competitor RNA were injected in random order over the sensor chip (at a flow rate of 20 μL/min for 120 sec) and allowed to undergo a 120-sec dissociation time; a further 300-sec interval was allowed between injections. Data were analyzed by using BIA Evaluation software (Biacore).

[3] = biological target: T3, ZRANB2-F2 R82Q (Homo sapiens, UniProt O95218 O95218:65-95, R82Q); test: FP; settings: label: 5'-fluorescein (FA) or 32P (gel shift)
T3 chain: T1 chain with R18Q
Protocol: (§3) Fluorescence Anisotropy titrations e.g., as shown in FIGS. 1D-F, 8 and 35, were carried out using standard protocols. In brief, 5′-Fluorescein-labeled RNA oligonucleotides were quantified by A₂₆₀, correcting for fluorescein absorbance by using A₄₉₃. For single-site experiments, the sequence […] (SEQ ID NO: 28), or single base mutants thereof, was used. For double-site experiments, two AGGUAA sites were separated by different length sequences as indicated, and the total oligonucleotide lengths were kept constant by the symmetrical addition of adenines to each end. […] Protein was titrated into this starting solution and anisotropy values measured on a Cary Eclipse fluorescence spectrophotometer fitted with manual polarizer and long-pass filters set to 475 and 515 nm for excitation and emission, respectively. […] Association constants were determined by nonlinear least squares regression analysis using a 1:1 binding model.
(§4) To determine whether changing arginine-82 (R82) would affect the binding preference of ZRANB2-F2 from GGU to GAU, the point mutation R82Q in ZNF 2 of ZRANB2 was made and the ability of both the wild type (W) protein and the R82Q mutant to bind to AGGUAA and AGAUAA was assessed by fluorescence anisotropy binding assays as described previously in Example 1.

[4] = biological target: T4, ZRANB2-F2 K72A (Homo sapiens, UniProt O95218 O95218:65-95, K72A); test: FP; much smaller change in affinity; settings: label: 5'-fluorescein (FA) or 32P (gel shift)
T4 chain: T1 chain with K8A
Protocol: (§5) Fluorescence Anisotropy titrations e.g., as shown in FIGS. 1D-F, 8 and 35, were carried out using standard protocols. In brief, 5′-Fluorescein-labeled RNA oligonucleotides were quantified by A₂₆₀, correcting for fluorescein absorbance by using A₄₉₃. For single-site experiments, the sequence […] (SEQ ID NO: 28), or single base mutants thereof, was used. For double-site experiments, two AGGUAA sites were separated by different length sequences as indicated, and the total oligonucleotide lengths were kept constant by the symmetrical addition of adenines to each end. The anisotropy titrations were performed with a starting RNA concentration of 50 nM in a buffer comprising either 10 mM Tris (pH 8.0), 50 mM KCl, 5 mM MgCl₂, 0.05 mg/mL heparin, and 1 mM DTT (for GST fusion constructs) or 10 mM Mops (pH 7.3), 50 mM NaCl, 0.05 mg/mL heparin, and 1 mM DTT (for ZRANB2-F12). RNasin (Promega) was also added to the protein solution to a concentration of 2 units/μL. Protein was titrated into this starting solution and anisotropy values measured on a Cary Eclipse fluorescence spectrophotometer fitted with manual polarizer and long-pass filters set to 475 and 515 nm for excitation and emission, respectively. […] Association constants were determined by nonlinear least squares regression analysis using a 1:1 binding model. […]

[5] = biological target: T5, ZRANB2-F2 T73A (Homo sapiens, UniProt O95218 O95218:65-95, T73A); test: FP; much smaller change in affinity; settings: label: 5'-fluorescein (FA) or 32P (gel shift)
T5 chain: T1 chain with T9A
Protocol: as §5

[6] = biological target: T6, ZRANB2-F2 (Homo sapiens, UniProt O95218 O95218:65-95); test: FP; GST-F2; 10 mM Tris pH 8.0, 50 mM KCl, 5 mM MgCl2, heparin, 25 C; settings: tags: GST fusion (FA); label: 5'-fluorescein (FA) or 32P (gel shift)
T6 chain: T1 chain
Protocol: Fluorescence Anisotropy titrations e.g., as shown in FIGS. 1D-F, 8 and 35, were carried out using standard protocols. In brief, 5′-Fluorescein-labeled RNA oligonucleotides were quantified by A₂₆₀, correcting for fluorescein absorbance by using A₄₉₃. For single-site experiments, the sequence […] (SEQ ID NO: 28), or single base mutants thereof, was used. For double-site experiments, two AGGUAA sites were separated by different length sequences as indicated, and the total oligonucleotide lengths were kept constant by the symmetrical addition of adenines to each end. The anisotropy titrations were performed with a starting RNA concentration of 50 nM in a buffer comprising either 10 mM Tris (pH 8.0), 50 mM KCl, 5 mM MgCl₂, 0.05 mg/mL heparin, and 1 mM DTT (for GST fusion constructs) or 10 mM Mops (pH 7.3), 50 mM NaCl, 0.05 mg/mL heparin, and 1 mM DTT (for ZRANB2-F12). RNasin (Promega) was also added to the protein solution to a concentration of 2 units/μL. Protein was titrated into this starting solution and anisotropy values measured on a Cary Eclipse fluorescence spectrophotometer fitted with manual polarizer and long-pass filters set to 475 and 515 nm for excitation and emission, respectively. […] Association constants were determined by nonlinear least squares regression analysis using a 1:1 binding model.

[7] = biological target: T7, ZRANB2-F1 (Homo sapiens, UniProt O95218 O95218:1-45); test: FP; GST-F1; 10 mM Tris pH 8.0, 50 mM KCl, 5 mM MgCl2, heparin, 25 C; settings: tags: GST fusion; label: 5'-fluorescein (FA) or 32P (gel shift)
T7 chain: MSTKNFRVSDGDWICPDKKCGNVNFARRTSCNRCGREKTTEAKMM
Protocol: as §3
Constructs of the two individual domains, F1 (FIG. 2, residues 1-45) and F2 (FIG. 2, residues 65-95), were cloned expressed and purified as GST fusions described in section 1.2 above, and tested their ability to bind ssRNA by fluorescence anisotropy as described in section 1.5 above, using a ssRNA oligonucleotide bearing a 5′ fluorescein tag and containing a single AGGUAA site.

[8] = biological target: T2, ZRANB2-F12; test: EMSA; 10 mM Mops pH 7.2, 50 mM KCl, 5 mM MgCl2, heparin, 4 C; settings: tags: GST removed for FA, gel shift and SPR; label: 5'-fluorescein (FA) or 32P (gel shift)
Protocol: (§6) Gel Shift assays e.g., FIGS. 1B, 32A, were carried out using standard protocols. In brief, oligonucleotides were 5′ end-labelled with T4 polynucleotide kinase and annealed. Binding reactions were set up in a volume of 30 μL and contained a constant concentration of ³²P-labeled probe (0.1 pmol) and increasing concentrations of F12, in a buffer consisting of 10 mM Mops (pH 7.2), 50 mM KCl, 5 mM MgCl₂, 1 mM DTT, 0.03 mg/mL heparin, and 5% glycerol. Binding reactions were set up on ice and incubated at 4° C. for 30 min, after which time 15 μL of each sample was loaded onto a prerun 8% native polyacrylamide gel made up in 0.5× Tris-borate buffer, and electrophoresed (250V, 1 h, 4° C.). The oligonucleotide sequence used for gel shift experiments was […] (SEQ ID NO: 28); the site was mutated by changing the central GGU to CUG.
(§7) To determine whether the AGGUAA motif was sufficient for binding, the binding of the double finger construct F12 to a 17-nt RNA oligonucleotide containing a single AGGUAA motif was tested as described in Section 1.4 above with dsDNA, ssDNA, and dsRNA also tested as controls. […] Mutation of the central GGU, which is the most highly-conserved element in the SELEX consensus to CUG, abrogated the interaction, showing that the interaction is sequence specific (FIG. 1B).

[9] = biological target: T2, ZRANB2-F12; test: FP; higher affinity than shorter spacings; value in figure only; settings: tags: GST removed for FA, gel shift and SPR; label: 5'-fluorescein
Protocol: as §3
The importance of the spacing between AGGUAA motifs was assessed by measuring binding of F12 to double sites that were separated by −1 to 8 nt (where −1 denotes the sequence […] SEQ ID NO: 33; FIG. 1E, lanes 5-10).

[10] = biological target: T3, ZRANB2-F2 R82Q; test: FP; no preference between G and A at position 3; settings: label: 5'-fluorescein
Protocol: as §3, §4

[11] = biological target: T2, ZRANB2-F12; test: EMSA; dsRNA control; settings: tags: GST removed for FA, gel shift and SPR; label: 32P
Protocol: as §6, §7

[12] = biological target: T2, ZRANB2-F12; test: competition; strongest competitor in SPR competition; settings: tags: GST removed for FA, gel shift and SPR
Protocol: as §1
as §2, with “software (Biacore). […]” for “software (Biacore).”

[13] = biological target: T2, ZRANB2-F12; test: EMSA; dsDNA control; settings: tags: GST removed for FA, gel shift and SPR; label: 32P
Protocol: as §6, §7

[14] = biological target: T2, ZRANB2-F12; test: EMSA; interaction abrogated; settings: tags: GST removed for FA, gel shift and SPR; label: 32P
Protocol: as §6, §7

[15] = biological target: T2, ZRANB2-F12; test: 15N-HSQC titration; settings: tags: GST removed for FA, gel shift and SPR; label: 5'-fluorescein
Protocol: In brief, F2 and F12 were dialysed into 25 mM potassium phosphate (pH 7.0), 25 mM NaCl, and 0.5 mM DTT and concentrated to 0.4-1 mM. All spectra were recorded on a Bruker Avance 600 spectrometer equipped with a cryoprobe. 1H, 15N, and 13C assignments were obtained from HNCACB, CB-CA(CO)NH, HCCH-TOCSY, NOESY, and TOCSY spectra acquired at 2° C., 5° C., or 25° C. Dihedral angle restraints were obtained by analysis of an HNHA spectrum as previously described in Vuister G. W. and Bax A. 1993 J Am Chem Soc 115: 7772-7777. NMR data were processed by using XWINNMR/Topspin (Bruker) and analyzed with SPARKY (T. D. Goddard and D. G. Kneller, University of California, San Francisco). The structure of F2 was calculated from NOE and Ø angle constraints (e.g., FIGS. 5 and 9C) by using a protocol as described in Plambeck C. A., et al., 2003 J Biol Chem 278: 22805-22811.
¹⁵N-HSQC titrations were also carried out by using the double finger construct (F12; residues 1-95) and the double site oligonucleotide. AGGUAAAGGUAA (SEQ ID NO: 26). […] This titration (FIG. 9D) gave rise to the same pattern of chemical-shift changes as the two single-finger experiments. Only 3-4 new signals appeared, most likely from linker residues.

B1: 10-nt AGGUAA RNA (ssRNA)
RNA: CCAGGUAAAG
[1]
  binding result: binds

B2: Tra2-beta exon 3 5' splice site (ssRNA)
RNA: CUCUGAAUCUAGGUAAGAAAG
[2]
  binding result: binds

B3: 17-nt AGGUAA ssRNA (ssRNA)
RNA: GCAACCAGGUAAAGUCU
[3]
  binding signal: ~2 fold lower than WT F2
[4]
  binding result: binds
[5]
  binding result: binds
[6]
  Ka: 1e+06 M⁻¹
[7]
  Ka: 3e+06 M⁻¹
[8]
  binding result: binds

B4: double site spacing 5 (penta-adenine) (ssRNA)
RNA: AGGUAAAAAAAAGGUAA
modifications: [none]
[9]
  binding result: binds

B5: AGAUAA (3A) (ssRNA)
RNA: AGAUAA
[10]
  binding signal: ~2 fold higher than WT F2 on same RNA

B6: 17-nt site as dsRNA (dsRNA)
RNA 1: GCAACCAGGUAAAGUCU
RNA 2: AGACUUUACCUGGUUGC
[11]
  binding result: no binding

B7: Tra2-beta exon 3 5' splice site competitor (ssRNA)
RNA: CUCUGAAUCUAGGUAAGAAAG
[12]
  binding result: binds

B8: 17-nt site as dsDNA (dsDNA)
DNA 1: GCAACCAGGTAAAGTCT
DNA 2: AGACTTTACCTGGTTGC
modifications: [none]
[13]
  binding result: no binding

B9: 17-nt CUG mutant ssRNA (ssRNA)
RNA: GCAACCACUGAAAGUCU
modifications: [none]
[14]
  binding result: no binding

B10: double site AGGUAAAGGUAA (ssRNA)
RNA: AGGUAAAGGUAA
[15]
  binding result: binds
